# Laboratory results reported in patent publication US9290544B2, “Methods for making and using molecular switches involving circular permutation” (priority 2004, dated 2016).
# Like-named read-outs stand apart in the source and are kept apart here.
# Columns and labels:
# [1] = Nitrocefin hydrolysis in soluble fraction of cell lysates with and without 5 mM maltose (screen and confirmation of positives); format: biochemical; details: 50 μM nitrocefin; 5 mM maltose; 100 mM sodium phosphate buffer, pH 7.0
# Protocol: Next, 50 μl of PopCulture (Novagen) and 2.5 unit of benzonase nuclease was added to each well and incubated for 15 minutes at room temperature to lyse the cells. The cells debris and any unlysed cells were pelleted by centrifugation and supernatant was recovered. In 96-well format, 60 μl of lysate was assayed for hydrolysis of nitrocefin (50 μM) by monitoring the increase in absorbance at 490 nm in 100 mM sodium phosphate buffer, pH 7.0, both with and without 5 mM maltose. Any lysate in which there was a difference in rate of more than 2-fold (between with and without maltose) was selected for retesting and further investigation.
# Library members identified as having more than 200% switching activity in the 96-well plate screen were grown 24-48 hours in 100 ml LB media in 500 ml shaker flasks at 22° C. without IPTG. The cells were pelleted and resuspended in 8 ml assay buffer (100 mM sodium phosphate buffer, pH 7.0) and lysed by French press. The soluble fraction of this lysate was assayed for hydrolysis of nitrocefin (50 μM) at 22° C. as previously described (Guntas and Ostermeier 2004) both with and without 5 mM maltose. Initial rates were determined from absorbance at 486 nm monitored as a function of time. The enzyme was incubated at the assay temperature in the absence or presence of 5 mM maltose for four minutes prior to performing the assay. All assays contained 100 mM sodium phosphate buffer, pH 7.0. Library members for which there was a difference in the initial rate of more than about 2-fold were sequenced (Table 4). Switches RG-5-169 and RG-200-13 were also assayed in the presence of 5 mM sucrose or 5 mM glucose.
# [2] = Magnitude of switching in soluble fraction of cell lysates, Libraries 2-7 (FIG. 13); format: biochemical; details: room temperature, 50 μM nitrocefin
# Protocol: Libraries were plated on LB plates containing […] at the indicated concentrations of ampicillin and incubated at 37° C. overnight. From these plates, colonies were picked to inoculate 1 ml LB media (supplemented with 50 μg/ml chloramphenicol and 1 mM IPTG) in 96-well format. Lysates from these cultures were assayed for nitrocefin hydrolysis activity in the presence and absence of maltose as described above.
# Libraries 2-7 were plated on different levels of ampicillin in the presence of 50 mM maltose. Colonies that grew were used to inoculate 96-well plates. The resulting cultures were lysed and assayed at room temperature for nitrocefin hydrolysis in the presence and absence of maltose in 96-well format.
# FIG. 13 is a schematic depiction of the library construction schemes for Libraries 2-7, and of particular switches identified from these libraries. The arrowheads indicate the sites of insertion. Multiple arrowheads on one gene indicate random insertion sites. Dashed arrows indicate a particular switch on which successive libraries were based. The magnitude of switching was determined on the soluble fraction of cell lysates at room temperature using 50 μM nitrocefin. For switches with a rate increase in the presence of maltose, the ratio is of “with maltose” to “without maltose” (indicated by no sign in front of the value). […]
# [3] = Steady state kinetics of nitrocefin hydrolysis, purified RG13 proteins, 25° C.; format: biochemical; details: for Km / kcat: nitrocefin
# Protocol: All kinetic assays were performed at 25° C. in the presence of 100 mM sodium phosphate buffer, pH 7.0. Ten μl of enzyme stock was added to 1.59 ml buffer (containing the saccharide, if desired). After incubation for 30 seconds, 0.4 ml of 5× substrate was added and the absorbance at the appropriate wavelength was recorded using the Cary50 UV-VIS spectrophotometer. The wavelength monitored was 486 nm, 240 nm, and 232 nm for nitrocefin, carbenicillin, and ampicillin respectively. From the initial rate of reaction the kinetic constants were determined using Eadie-Hofstee plots. […] The rate data was consistent with a small hysteretic effect (Brennan et al. 1994) and not substrate inhibition as preincubation of the enzyme with the substrate for one minute prevented the lag from occurring upon addition of more substrate. Therefore, the steady state parameters for nitrocefin hydrolysis in the absence of maltose were determined by measuring the rate at 1-2 minutes (well after the lag) and correcting the substrate concentration by subtracting the amount of substrate hydrolyzed. In all cases the extent of reaction at the point the rate was measured was less than 25%. In the presence of maltose, no lag was observed.
# [4] = Apparent dissociation constant for maltose from initial rate of nitrocefin hydrolysis; format: binding; details: 25° C.
# Protocol: [formula] where ΔF is the change in fluorescence intensity, ΔFmax is the difference in fluorescence between no maltose and saturating amounts of maltose and [L] is the maltose concentration. The fluorescence quenching of RG13(1329W/A96W) upon addition of maltose was insufficient to accurately determine a Kd by this method. The dissociation constant for maltose and RG13(I329W) in the presence of saturating carbenicillin (2 mM) was determined by measuring the initial rate of carbenicillin hydrolysis as a function of maltose concentration. The apparent dissociation constant in the presence of subsaturating concentrations of nitrocefin (25 μM) for all three proteins was determined by measuring the initial rate of nitrocefin hydrolysis as a function of maltose concentration.
# [5] = cited from earlier work
# DH5α-E cells = experiment: In vivo characterization: MIC of ampicillin for DH5α-E cells expressing the protein; format: cell-based, E. coli; details: LB plates, 37° C., 20 hours
# Protocol: Overnight inoculums of DH5α-E cells expressing RG13, BLA or BLA(W208G) were diluted into LB media and plated on LB plates, either in the absence or presence of 50 μM maltose, in the presence of increasing amounts of ampicillin. Ampicillin was present in the plates at the following concentrations: 0, 2, 4, 8, 16, 32, 64, 128, 256, 512, and 2000 μg/ml. Cells were plated at approximately 1000 CFU (no antibiotic) per plate. The plates were incubated at 37° C. for 20 hours. The minimum inhibitory concentration (MIC) was defined as the lowest ampicillin concentration at which no colonies were present, or that at which the number of colonies present was <1% of the number of colonies at the next lowest level of ampicillin.
# [6] = effector maltose 5 mM (saturating)
# [7] = effector maltose 5 mM (saturating), 25° C.
molecule,measurement,setting,value
IFD-5-7: MBP[1-165]-BLA[110-286]-DKS-BLA[24-107]-MBP[164-370]; SEQ ID NO: 67,Switching effect: percent change in velocity of nitrocefin hydrolysis in the presence of 5 mM maltose,[1],+96%
IFD-5-15: MBP[1-165]-BLA[168-286]-DKS-BLA[24-170]-MBP[164-370]; SEQ ID NO: 71,Switching effect: percent change in velocity of nitrocefin hydrolysis in the presence of 5 mM maltose,[1],+97%
IFG-5-277: MBP[1-165]-BLA[218-286]-GSGGG-BLA[24-215]-MBP[164-370]; maltose is a negative effector; SEQ ID NO: 69,Effect of maltose on catalytic activity (magnitude of switching),[2],negative effector
same,Switching effect: percent change in velocity of nitrocefin hydrolysis in the presence of 5 mM maltose,[1],−250%
RG13 I329W/A96W: RG13 with MBP hinge mutations I329W and A96W; SEQ ID NO: 65,Km Ratio (with effector)/(without effector),[3]; effector maltose 5 mM,0.23 ± 0.04
same,kcat Ratio (with effector)/(without effector),[3]; [6],1.5 ± 0.2
same,kcat/Km Ratio (with effector)/(without effector),[3]; [6],6.4 ± 1.3
same,Km,[3]; [7],60 ± 4 µM
same,kcat,[3]; [7],530 ± 20 s⁻¹
same,Km,"[3]; no effector, pH 7.0, 25° C.",260 ± 40 µM
same,kcat,"[3]; no effector, pH 7.0, 25° C.",360 ± 40 s⁻¹
same,Kd,[4],170 ± 20 nM
"BLA: penicillin-hydrolyzing enzyme TEM1 β-lactamase, parent enzyme of the switches (protein, UniProt P62593 24-286, looked up) Beta-lactamase TEM: HPETLVKVKDAEDQLGARVGYIELDLNSGKILESFRPEERFPMMSTFKVLLCGAVLSRVDAGQEQLGRRIHYSQNDLVEYSPVTEKHLTDGMTVRELCSAAITMSDNTAANLLLTTIGGPKELTAFLHNMGDHVTRLDRWEPELNEAIPNDERDTTMPAAMATTLRKLLTGELLTLASRQQLIDWMEADKVAGPLLRSALPAGWFIADKSGAGERGSRGIIAALGPDGKPSRIVVIYTTGSQATMDERNRQIAEIGASLIKHW",kcat,[5]; previously reported for BLA at 24° C. (Sigal et al. 1984),900 s⁻¹
same,Km,"[5]; previously reported for BLA at 24° C. (Sigal et al. 1984), read-out: Km",110 µM
same,kcat,"[5]; previously reported, 30° C. (Raquet et al. 1994)",930 s⁻¹
same,Km,"[5]; previously reported, 30° C. (Raquet et al. 1994), read-out: Km",52 µM
same,Km,"[5]; substrate ampicillin (Raquet et al. 1994), read-out: Km for TEM-1 β-lactamase",32 µM
same,Km,"[5]; substrate benzylpenicillin (Raquet et al. 1994), read-out: Km for TEM-1 β-lactamase",19 µM
same,Km,"[5]; substrate cephalothin (Raquet et al. 1994), read-out: Km for TEM-1 β-lactamase",246 µM
same,Km,"[5]; substrate oxacillin (Raquet et al. 1994), read-out: Km for TEM-1 β-lactamase",3 µM
same,Effect of maltose on wild type BLA enzymatic activity,[5]; with or without an equimolar amount of MBP (Guntas et al. 2004),no effect
same,Minimum Inhibitory Concentration of Ampicillin,DH5α-E cells; 50 μM maltose,≧2000 μg/ml
same,Minimum Inhibitory Concentration of Ampicillin,DH5α-E cells; No maltose,≧2000 μg/ml
